Source: paper PMC11543927, “Subtleties in Clathrin heavy chain binding boxes provide selectivity among adaptor proteins of budding yeast” (Nature Communications, 2024)
Where a chain is given by its changes, count along the chain named.

T1: ScChc-NTD Clathrin, Arrestin and W box mutant (Cla+Arr+W) (Saccharomyces cerevisiae, UniProt P22137 1-369, F26A | K63E | I87D | Q89A | K98E | Q155A | Q195A | I197T | K251E)
T1 construct: Clathrin heavy chain N-terminal domain, Saccharomyces cerevisiae, residues 1-369, Clathrin, Arrestin and W box mutant; also called triple mutant
T1 sequence (looked up): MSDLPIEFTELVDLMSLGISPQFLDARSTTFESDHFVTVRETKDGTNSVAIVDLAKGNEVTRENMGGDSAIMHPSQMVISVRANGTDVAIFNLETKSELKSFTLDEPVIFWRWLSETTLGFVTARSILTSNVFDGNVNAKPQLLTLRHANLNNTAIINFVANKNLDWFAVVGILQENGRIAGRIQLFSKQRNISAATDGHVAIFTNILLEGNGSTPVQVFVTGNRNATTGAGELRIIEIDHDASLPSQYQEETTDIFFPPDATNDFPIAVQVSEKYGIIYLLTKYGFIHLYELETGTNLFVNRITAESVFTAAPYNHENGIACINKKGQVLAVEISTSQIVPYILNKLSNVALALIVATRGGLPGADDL

T2: ScChc-NTD Clathrin box mutant (K63E, I87D, Q89A, K98E) (Saccharomyces cerevisiae, UniProt P22137 1-369, K63E | I87D | Q89A | K98E)
T2 construct: Clathrin heavy chain N-terminal domain, Saccharomyces cerevisiae, residues 1-369, Clathrin box mutant; also called Cla mutant
T2 sequence (looked up): T1 sequence (looked up) with A26F, A155Q, A195Q, T197I, E251K

T3: ScChc-NTD Arrestin box mutant (Q195A, I197T, K251E) (Saccharomyces cerevisiae, UniProt P22137 1-369, Q195A | I197T | K251E)
T3 construct: Clathrin heavy chain N-terminal domain, Saccharomyces cerevisiae, residues 1-369, Arrestin box mutant; also called Arr mutant
T3 sequence (looked up): T1 sequence (looked up) with A26F, E63K, D87I, A89Q, E98K, A155Q

B1: Ent2 CBM peptide (GVSLIDL) (peptide)
peptide: GVSLIDL
notes: also called Ent2 peptide; source: synthetic peptide, bought: NovoProLabs
B2: Ent1 CBM peptide (GYTLIDL) (peptide)
peptide: GYTLIDL
notes: also called Ent1 peptide; source: synthetic peptide, bought: NovoProLabs

Columns and labels:
Assay in all cases: nanoDSF thermal shift; ScChc-NTD mutants 10 µM with Ent1 or Ent2 peptide, thermal ramp up to 80 °C; apparent KD from the Tm shift model
Details in all cases: both partners purified
[1] = molecular target: T1, ScChc-NTD Clathrin, Arrestin and W box …
[2] = molecular target: T2, ScChc-NTD Clathrin box mutant (K63E, …)
[3] = molecular target: T3, ScChc-NTD Arrestin box mutant (Q195A, …)

Row | Binder | Kd [1] [µM] | Kd [2] [µM] | Kd [3] [µM]
1 | B1 | ~1040 | ~509 | ~216
2 | B2 | ~3450 | ~968 | ~166
